Substrate in data set [1]: CC(C)C[C@@H](N)C(=O)O
Nature of the data set: purified protein. To be noted: 1 mM PMS, 20 mM sodium pyrophosphate, pH 10.0, 25 °C.

Substrate in data set [2]: N=C(N)NCCC[C@@H](N)C(=O)O
Nature of the data set: purified protein. The note with it: 1 mM PMS, 20 mM sodium pyrophosphate, pH 10.0, 25 °C.

This is an account of results in publication PMC10655190, “Targeted Mutation of a Non-catalytic Gating Residue Increases the Rate of Pseudomonas aeruginosaD-Arginine Dehydrogenase Catalytic Turnover” (Journal of Agricultural and Food Chemistry, 2023).

B1: Pseudomonas aeruginosa D-arginine dehydrogenase (PaDADH) (Pseudomonas aeruginosa PAO1) (protein)
chain: MIEADYLVIGAGIAGASTGYWLSAHGRVVVLEREAQPGYHSTGRSAAHYTVAYGTPQVRALTAASRAFFDNPPAGFCEHPLLSPRPEMVVDFSDDPEELRRQYESGKALVPQMRLLDAEQACSIVPVLRRDKVFGATYDPTGADIDTDALHQGYLRGIRRNQGQVLCNHEALEIRRVDGAWEVRCDAGSYRAAVLVNAAGAWCDAIAGLAGVRPLGLQPKRRSAFIFAPPPGIDCHDWPMLVSLDESFYLKPDAGMLLGSPANADPVEAHDVQPEQLDIATGMYLIEEATTLTIRRPEHTWAGLRSFVADGDLVAGYAANAEGFFWVAAQGGYGIQTSAAMGEASAALIRHQPLPAHLREHGLDEAMLSPRRLSP
The Km is the concentration of substrate that gives half-maximal velocity. One may read the kcat as the maximal rate divided by the concentration of active sites. As usually defined, the kcat/Km is the second-order rate constant that governs catalysis at low substrate concentration. In the case of B1, in data set [1], the Km is 6.6 ± 0.5 mM, the kcat stood at 73 ± 3 s⁻¹ and the kcat/Km is 11000 ± 880 M⁻¹ s⁻¹. Moreover, in data set [2], the Km was 0.033 ± 0.002 mM.
